The assay deals with HLA-A*02:01 (Homo sapiens, UniProt P04439, D140Y/D185E/D98H/E176V/E277Q/G131W/G231S/I119V/I121R/I166T/I218V/L300P/L318F/N151K/N90K/P208A/P217A/Q86G/Q94H/R138H/R169H/T345S). Put plainly: MHC binding assay (UV-ligand exchange, β2m ELISA, peptide exchange yield). As to conditions: binding to HLA-A*02:01. Put shortly: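 Peptide-HLA-A*02:01 complexes formed by UV-mediated exchange of a photocleavable ligand; exchange yield measured by streptavidin-capture ELISA detecting β2m with HRP anti-β2m, TMB read at 450 nm. Refolded monomer standards 15-500 ng/ml; samples diluted 100-fold.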
(In general: ELISA stands for enzyme-linked immunosorbent assay.)
For “187 (VMDTHLVNI; listed as Homo sapiens) [compound 187]”, the “Peptide Exchange (MHC class I binding score, peptide exchange yield)” value (from here on “Peptide Exchange”) is ““++++” (>75% = ++++)”.
Turning to “188 (VMGDIPAAV; listed as Homo sapiens) [compound 188]”, the “Peptide Exchange” value is ““++” (>20% = ++)”.
The entry for “189 (VMLEMTPEL; listed as Homo sapiens) [compound 189]” is ““+++” (>50 = +++)”; for “190 (VVMGTVPRL; listed as Homo sapiens) [compound 190]” it is ““+++” (>50 = +++)”.
Take “191 (YIFDGSDGGV; listed as Homo sapiens) [compound 191]”: the “Peptide Exchange” value is recorded as ““+++” (>50 = +++)”.
The entry for “193 (YLDLSNNRL; listed as Homo sapiens) [compound 193]” is ““+++” (>50 = +++)”.
Take “194 (YLDNVLAEL; listed as Homo sapiens) [compound 194]”: the “Peptide Exchange” value is ““++++” (>75% = ++++)”.
With “195 (YLGGFALSV; listed as Homo sapiens) [compound 195]”, the “Peptide Exchange” value is ““++++” (>75% = ++++)”.
As to “196 (YLLLQTYVL; listed as Homo sapiens) [compound 196]”, the “Peptide Exchange” value is ““+” (>10% = +)”.
As for “198 (YLTFLPAEV; listed as Homo sapiens) [compound 198]”, the “Peptide Exchange” value was ““+++” (>50 = +++)”.
The entry for “199 (YLVELSSLL; listed as Homo sapiens) [compound 199]” is ““++++” (>75% = ++++)”.
On to “202 (YVDDVFLRV; listed as Homo sapiens) [compound 202]”, for which the “Peptide Exchange” value is listed as ““++++” (>75% = ++++)”.
Turning to “203 (ALLSSQLAL; listed as Homo sapiens) [compound 203]”, the “Peptide Exchange” value is reported as ““+++” (>50 = +++)”.
The entry for “204 (GLLQINDKIAL; listed as Homo sapiens) [compound 204]” is ““+++” (>50 = +++)”.
Consider “205 (GLSQANFTL; listed as Homo sapiens) [compound 205]”, for which the “Peptide Exchange” value is listed as ““+++” (>50 = +++)”.
Consider “206 (HMQDVRVLL; listed as Homo sapiens) [compound 206]”, for which the “Peptide Exchange” value is ““+++” (>50 = +++)”.
For the substance “207 (IIADLDTTIMFA; listed as Homo sapiens) [compound 207]”, the “Peptide Exchange” value was ““+++” (>50 = +++)”.
With “208 (ILLKTEGINL; listed as Homo sapiens) [compound 208]”, the “Peptide Exchange” value is given as ““+++” (>50 = +++)”.
The entry for “209 (ILQAELPSL; listed as Homo sapiens) [compound 209]” is ““+++” (>50 = +++)”; for “210 (KLLVQDFFL; listed as Homo sapiens) [compound 210]” it is ““+++” (>50 = +++)”; for “211 (LIDVKPLGV; listed as Homo sapiens) [compound 211]” it is ““+++” (>50 = +++)”.
In the case of “214 (RLQELTEKL; listed as Homo sapiens) [compound 214]”, the “Peptide Exchange” value is listed as ““+++” (>50 = +++)”.
As to “215 (VMQDIVYKL; listed as Homo sapiens) [compound 215]”, the “Peptide Exchange” value was ““+++” (>50 = +++)”.
The entry for “216 (WLAGDVPAA; listed as Homo sapiens) [compound 216]” is ““+++” (>50 = +++)”; for “217 (ALDEPPYLTV; listed as Homo sapiens) [compound 217]” it is ““+++” (>50 = +++)”.
As for “218 (ALGEEWKGYVV; listed as Homo sapiens) [compound 218]”, the entry is ““++” (>20% = ++)”; as for “219 (ALLNLLESA; listed as Homo sapiens) [compound 219]”, ““+++” (>50 = +++)”; as for “220 (ALPEILFAKV; listed as Homo sapiens) [compound 220]”, ““+++” (>50 = +++)”.
For the substance “221 (ALVSTIIMV; listed as Homo sapiens) [compound 221]”, the “Peptide Exchange” value is ““+” (>10% = +)”.
The entry for “222 (ALWELSLKI; listed as Homo sapiens) [compound 222]” is ““+++” (>50 = +++)”; for “223 (ALWVSQPPEI; listed as Homo sapiens) [compound 223]” it is ““+++” (>50 = +++)”; for “224 (AMEALVVEV; listed as Homo sapiens) [compound 224]” it is ““+++” (>50 = +++)”.
As for “225 (ILQERELLPV; listed as Homo sapiens) [compound 225]”, the entry is ““+++” (>50 = +++)”; as for “226 (AMNISVPQV; listed as Homo sapiens) [compound 226]”, ““+++” (>50 = +++)”.
For the substance “227 (FLAEASVMTQL; listed as Homo sapiens) [compound 227]”, the “Peptide Exchange” value is ““+++” (>50 = +++)”.
The entry for “228 (FLGGLSPGV; listed as Homo sapiens) [compound 228]” is ““+++” (>50 = +++)”; for “229 (FLLNLQNCHL; listed as Homo sapiens) [compound 229]” it is ““++++” (>75% = ++++)”; for “230 (FLQDSKVIFV; listed as Homo sapiens) [compound 230]” it is ““+++” (>50 = +++)”.
Turning to “231 (FLYIRQLAI; listed as Homo sapiens) [compound 231]”, the “Peptide Exchange” value is ““+++” (>50 = +++)”.
For the substance “232 (FMHQIIDQV; listed as Homo sapiens) [compound 232]”, the “Peptide Exchange” value is ““++++” (>75% = ++++)”.
The entry for “233 (GIIDINVRL; listed as Homo sapiens) [compound 233]” is ““++” (>20% = ++)”; for “234 (GLDDAEYAL; listed as Homo sapiens) [compound 234]” it is ““++” (>20% = ++)”.
For the substance “235 (GLDDLLLFL; listed as Homo sapiens) [compound 235]”, the “Peptide Exchange” value was ““+++” (>50 = +++)”.
As for “236 (GLLESGRHYL; listed as Homo sapiens) [compound 236]”, the entry is ““+++” (>50 = +++)”.
The entry for “237 (GLQENLDVVV; listed as Homo sapiens) [compound 237]” is ““++++” (>75% = ++++)”; for “238 (GLVETELQL; listed as Homo sapiens) [compound 238]” it is ““+++” (>50 = +++)”.

These data come from patent US11260115B1, “Peptides and combination of peptides for use in immunotherapy against CLL and other cancers” (immatics biotechnologies GmbH, priority 2015, dated 2022).
